{
  "source": "paper PMC3460628",
  "test_system": "T1, His-ChvI(D52E) D52E (Agrobacterium tumefaciens C58), ORF:0a874367",
  "T1 sequence": "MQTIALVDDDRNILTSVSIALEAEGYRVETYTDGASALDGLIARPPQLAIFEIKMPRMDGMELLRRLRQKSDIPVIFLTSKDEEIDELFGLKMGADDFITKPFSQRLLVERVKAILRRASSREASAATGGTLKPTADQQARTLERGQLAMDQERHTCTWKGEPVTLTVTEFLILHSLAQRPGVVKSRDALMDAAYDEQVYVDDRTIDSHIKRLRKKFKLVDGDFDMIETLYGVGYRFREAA",
  "experiment": "EMSA",
  "data": [
    {"sequence": "TCGAGGAGTAGTCTATCCCCAGAAAATAGTAATGGATTTTTTGTAGTTACTTCCCTTACGTGAGGCTATTAATCAGACAGACTTATTCAAAATGTGTCTAAATTGTGGCGTCTACTCCCTAATCTAATCTGATAAAAAATAAACTTCGGGGTGGACAACCCGGTTTCATCATCATAGTTATTCCACGTCACGTTGTGGAATGAACCCGGGCAGGAGGCTCATTGCATGTCGGTACCCC (double strand) [imp-hcp intergenic region (T6SS regulatory region), 230 bp]", "values": [
      {"measurement": "binding", "result": "binds"}
    ]},
    {"sequence": "TCCGCATCCATGGGAATAGCAGTCTTTCCCCACCTTGCCTCCACGCTGGAGCAGCTTTTCGACAGGGCAGACTATGCCCTCTACCACGCCAAGAAAACCCGGCGTGGCGATGCCGTTCTGTTCGATGCGGAACACGAAAAGCAGATCAATATCGAAGCCCGCATTGAGCATCTGCTCAAGCAGAGCGATCTGAAAAACGAACTTTCGGTGATGTTTCAGCCGATCGTGGATATACGCGACGGAAGGATC (double strand) [atu4353 coding region control fragment]", "values": [
      {"measurement": "binding", "result": "no binding"}
    ]}
  ]
}
